# Laboratory results: patent US20220112276A1 (Janssen / Centocor, published 2022)
# B1: 01B04R3L VHH Mono-Fc (Fc fusion)
# chain: EVQLVESGGGLVQAGDSLRLSCAASGRTFTTYVMGWFRQAPGKEREFVATIAWSGSTNYKYYADSVKGRFTISRDNAKNTVYLRMNSLKPEDTAVYYCAASTVLTDPRRLNEYANWGQGTLVTVSSSPAPELLGGPSVFLFPPKPKDTLMISRTPEVTCVVVDVSHEDPEVKFNWYVDGVEVHNAKTKPREEQYNSTYRVVSVLTVLHQDWLNGKEYKCKVSNKALPAPIEKTISKAKGQPREPQVYTKPPSREEMTKNQVSLSCLVKGFYPSDIAVEWESNGQPENNYKTTVPVLDSDGSFRLASYLTVDKSRWQQGNVFSCSVMHEALHNHYTQKSLSLSPGK
# B2: 01C12R2 VHH Mono-Fc (Fc fusion)
# chain: EVQLVESGGGLVQAGGSLRLSCAASGRTFGSYSMGWFRQAPGKEREFVGAISWSGSSTYKYYEDSVKGRFTISRDNAKNTVPLQMNSLKPEDTGVYFCGGTMERRDPRRTSAYDYWGQGTLVTVSSSPAPELLGGPSVFLFPPKPKDTLMISRTPEVTCVVVDVSHEDPEVKFNWYVDGVEVHNAKTKPREEQYNSTYRVVSVLTVLHQDWLNGKEYKCKVSNKALPAPIEKTISKAKGQPREPQVYTKPPSREEMTKNQVSLSCLVKGFYPSDIAVEWESNGQPENNYKTTVPVLDSDGSFRLASYLTVDKSRWQQGNVFSCSVMHEALHNHYTQKSLSLSPGK
# B3: 03C05R3 VHH Mono-Fc (Fc fusion)
# chain: EVQLVESGGGLVKAEGSLRLSCVASTSIASINVMGWYRQAPGKERELVARISGGGITHYAESVEGRFTISRDNAKNTVHLQMNGLKPEDTAAYYCKADVFASSGHVTTYWGQGTLVTVSSSPAPELLGGPSVFLFPPKPKDTLMISRTPEVTCVVVDVSHEDPEVKFNWYVDGVEVHNAKTKPREEQYNSTYRVVSVLTVLHQDWLNGKEYKCKVSNKALPAPIEKTISKAKGQPREPQVYTKPPSREEMTKNQVSLSCLVKGFYPSDIAVEWESNGQPENNYKTTVPVLDSDGSFRLASYLTVDKSRWQQGNVFSCSVMHEALHNHYTQKSLSLSPGK
# B4: 01F03R2LS VHH Mono-Fc (Fc fusion)
# chain: EVQLVESGGGLVQAGDSLRLSCAASGRTGSSGAMGWFRQGPGKEREFVAALMWRNTVTYKYYEDSVKGRFTISRDNAKNTAYLQMNSLKPEDTAVYYCAADPDTYGDPRNSGAYDYWGQGTLVTVSSSPAPELLGGPSVFLFPPKPKDTLMISRTPEVTCVVVDVSHEDPEVKFNWYVDGVEVHNAKTKPREEQYNSTYRVVSVLTVLHQDWLNGKEYKCKVSNKALPAPIEKTISKAKGQPREPQVYTKPPSREEMTKNQVSLSCLVKGFYPSDIAVEWESNGQPENNYKTTVPVLDSDGSFRLASYLTVDKSRWQQGNVFSCSVMHEALHNHYTQKSLSLSPGK
# B5: 01E03R3 VHH Mono-Fc (Fc fusion)
# chain: QVQLVESGGGLVQTGGSLRLSCAASGRTFSVYRVGWFRQAPGKEREFVAAVIWSGASTYKYAADSVKGRFTISRDNAENTVYLQMNSLKPEDTAVYYCAADPLGLPGPDVRVEGGYRHWGQGTLVTVSSSPAPELLGGPSVFLFPPKPKDTLMISRTPEVTCVVVDVSHEDPEVKFNWYVDGVEVHNAKTKPREEQYNSTYRVVSVLTVLHQDWLNGKEYKCKVSNKALPAPIEKTISKAKGQPREPQVYTKPPSREEMTKNQVSLSCLVKGFYPSDIAVEWESNGQPENNYKTTVPVLDSDGSFRLASYLTVDKSRWQQGNVFSCSVMHEALHNHYTQKSLSLSPGK
# Biological target: T1, human pIgR extracellular domain (ECD) (human, UniProt P01833 19-638)
# T1 construct: Bought from R&D Systems (Cat 2717-PG-050); also called hpIgR ECD
# T1 sequence (P01833 other isoform, or with tags, fused parts or gaps): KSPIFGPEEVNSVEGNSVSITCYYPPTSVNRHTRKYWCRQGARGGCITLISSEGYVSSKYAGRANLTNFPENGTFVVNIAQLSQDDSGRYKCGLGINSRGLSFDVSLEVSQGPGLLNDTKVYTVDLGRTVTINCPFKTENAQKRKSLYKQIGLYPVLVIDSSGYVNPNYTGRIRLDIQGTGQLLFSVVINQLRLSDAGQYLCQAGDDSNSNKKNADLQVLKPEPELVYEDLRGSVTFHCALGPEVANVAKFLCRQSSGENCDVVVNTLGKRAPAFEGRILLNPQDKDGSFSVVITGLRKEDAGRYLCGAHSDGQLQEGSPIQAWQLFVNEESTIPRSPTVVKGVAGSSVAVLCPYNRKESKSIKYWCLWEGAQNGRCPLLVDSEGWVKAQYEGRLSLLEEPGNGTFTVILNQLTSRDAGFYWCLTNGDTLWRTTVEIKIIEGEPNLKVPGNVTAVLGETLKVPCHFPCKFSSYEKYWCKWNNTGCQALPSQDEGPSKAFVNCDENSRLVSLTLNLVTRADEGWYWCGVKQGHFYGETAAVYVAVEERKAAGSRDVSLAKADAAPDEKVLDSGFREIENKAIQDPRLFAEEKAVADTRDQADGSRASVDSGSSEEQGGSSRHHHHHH
# Assay: SPR, VHH captured by anti-Fc, ECD analyte
# How it was run: (§1)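 Single-cycle kinetics: ECD analyte from 30 nM, 3-fold series, low to high, with 30 min off-rate monitoring, over VHH captured at 0.5 ug/ml (~200-300 RU). HBSP plus 100 ug/ml BSA at 30 μL/min. Reference cell and buffer blank subtracted; global 1:1 Langmuir fit gave kon, koff, KD.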
row,Binder,Kd
1,B1,13.8 nM
2,B2,21.4 nM
3,B3,0.094 nM
4,B4,26.2 nM
5,B5,2.95 nM

# Biological target: T2, rat pIgR extracellular domain (rat, UniProt P15083 19-643)
# T2 construct: extracellular domain
# T2 sequence (looked up): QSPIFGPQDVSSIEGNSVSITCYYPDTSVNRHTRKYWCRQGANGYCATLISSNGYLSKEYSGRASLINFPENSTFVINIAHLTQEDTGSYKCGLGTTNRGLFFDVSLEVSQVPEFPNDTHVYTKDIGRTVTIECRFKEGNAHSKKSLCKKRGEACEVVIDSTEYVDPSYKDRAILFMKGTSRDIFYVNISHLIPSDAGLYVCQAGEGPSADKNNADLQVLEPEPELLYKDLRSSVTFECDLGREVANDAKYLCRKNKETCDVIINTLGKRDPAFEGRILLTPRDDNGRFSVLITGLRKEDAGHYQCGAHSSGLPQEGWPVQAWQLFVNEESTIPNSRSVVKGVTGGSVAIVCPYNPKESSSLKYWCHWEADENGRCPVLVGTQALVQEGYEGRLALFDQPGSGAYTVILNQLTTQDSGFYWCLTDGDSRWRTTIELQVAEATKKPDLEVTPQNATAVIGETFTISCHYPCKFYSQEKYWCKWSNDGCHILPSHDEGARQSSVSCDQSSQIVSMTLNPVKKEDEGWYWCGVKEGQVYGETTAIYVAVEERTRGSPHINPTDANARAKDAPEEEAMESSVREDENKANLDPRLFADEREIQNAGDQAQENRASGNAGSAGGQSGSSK
# Assay: SPR, VHH captured by anti-Fc, ECD analyte
# How it was run: as §1
row,Binder,Kd
1,B1,4.71 nM
2,B2,14.1 nM
3,B3,1.83 nM
4,B4,8.05 nM
5,B5,24.9 nM

# Biological target: T3, cynomolgus monkey pIgR extracellular domain (cynomolgus monkey, UniProt A0A2K5WMU9 19-638)
# T3 construct: extracellular domain
# T3 sequence (A0A2K5WMU9 entry or part of it): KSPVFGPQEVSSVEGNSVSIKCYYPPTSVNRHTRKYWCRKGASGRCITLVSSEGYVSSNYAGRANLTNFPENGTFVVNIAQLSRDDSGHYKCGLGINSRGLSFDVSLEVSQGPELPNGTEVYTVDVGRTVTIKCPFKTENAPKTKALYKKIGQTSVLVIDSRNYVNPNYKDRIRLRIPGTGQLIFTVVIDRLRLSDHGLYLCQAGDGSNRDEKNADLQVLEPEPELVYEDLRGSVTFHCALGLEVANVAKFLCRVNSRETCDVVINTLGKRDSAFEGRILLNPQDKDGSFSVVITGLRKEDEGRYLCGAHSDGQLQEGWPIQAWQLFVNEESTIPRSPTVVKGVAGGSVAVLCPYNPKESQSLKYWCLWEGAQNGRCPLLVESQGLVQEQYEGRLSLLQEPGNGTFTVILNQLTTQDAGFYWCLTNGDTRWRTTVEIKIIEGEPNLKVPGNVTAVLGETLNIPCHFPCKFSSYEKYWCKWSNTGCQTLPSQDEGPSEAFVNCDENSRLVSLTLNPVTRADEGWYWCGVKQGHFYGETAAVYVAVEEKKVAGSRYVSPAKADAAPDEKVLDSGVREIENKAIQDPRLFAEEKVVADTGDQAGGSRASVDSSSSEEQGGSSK
# Assay: SPR, VHH captured by anti-Fc, ECD analyte
# How it was run: as §1
row,Binder,Kd
1,B1,5.94 nM
2,B2,23 nM
3,B3,16.5 nM
4,B4,34.4 nM
5,B5,6.14 nM

# Biological target: T4, mouse pIgR extracellular domain (ECD) (mouse, UniProt O70570 19-645)
# T4 construct: Bought from R&D Systems (Cat 2800-PG-050); also called mpIgR ECD
# T4 sequence: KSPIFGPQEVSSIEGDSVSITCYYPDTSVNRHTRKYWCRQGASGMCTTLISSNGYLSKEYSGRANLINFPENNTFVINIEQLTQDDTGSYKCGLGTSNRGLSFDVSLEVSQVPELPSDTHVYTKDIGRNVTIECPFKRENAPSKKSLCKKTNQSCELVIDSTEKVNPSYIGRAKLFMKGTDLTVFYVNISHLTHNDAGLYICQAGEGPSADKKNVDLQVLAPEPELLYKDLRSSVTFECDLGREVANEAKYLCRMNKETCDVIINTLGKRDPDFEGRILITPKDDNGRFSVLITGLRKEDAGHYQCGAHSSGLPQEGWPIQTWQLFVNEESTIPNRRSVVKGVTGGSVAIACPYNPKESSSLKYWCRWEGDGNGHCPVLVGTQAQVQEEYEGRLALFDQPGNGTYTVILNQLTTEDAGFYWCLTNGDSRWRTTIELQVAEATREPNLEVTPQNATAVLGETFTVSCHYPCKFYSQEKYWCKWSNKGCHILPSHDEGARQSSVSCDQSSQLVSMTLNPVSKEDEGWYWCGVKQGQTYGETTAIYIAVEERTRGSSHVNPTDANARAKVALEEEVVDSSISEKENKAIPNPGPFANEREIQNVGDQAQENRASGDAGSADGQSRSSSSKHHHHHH
# Assay: SPR, VHH captured by anti-Fc, ECD analyte
# How it was run: as §1
row,Binder,Kd
1,B1,9.2 nM
2,B2,4.76 nM
3,B3,9.02 nM
4,B4,1.57 nM
5,B5,10.4 nM
